Test results from the DeepSol protein solubility set.

Assay: soluble on expression in E. coli; label from the status in PepcDB or PDB records
In the case of “MGHHHHHHSHMPLTSAFRAVDNDPGIIVWRIEKMELALVPVSAHGNFYEGDCYVILSTRRVASLLSQDIHFWIGKDSSQDEQSCAAIYTTQLDDYLGGSPVQHREVQYHESDTFRGYFKQGIIYKQGGVASGMKHVETNTYDVKRLLHVKGKRNIRATEVEMSWDSFNRGDVFLLDLGKVIIQWNGPESNSGERLKAMLLAKDIRDRERGGRAEIGVIEGDKEAASPELMKVLQDTLGRRSIIKPTVPDEIID”, the “soluble on expression in E. coli” value is reported as “soluble”. In the case of “SLIDNPHAQDYWPNRGQMDVQGLAVKYTEAGRAVLSDISFSVEGGLSMGLLGRTGSGKSTLLSALLRLASTDGEISIDGISWNSVPLEKWRKAFGVVPQKVFILTGTFRMNLDPHGRYSDEELWRVADQVGLKSVIEQFPDRLDFQLENGGSVLSHGHKQLMCLARSILSKARILLLDEPSAYLDTITLQVLRKTLKHAFSDCTVILSEAKVEPLLECDSFLVIEGSSVKSYDSIQKLLNEMSDLKQAVSAAD”, the “soluble on expression in E. coli” value is reported as “not soluble”. In the case of “SFRFMRDVEPEDPMFLMDPFAIHRQHMSRMLSGGFGYSPFLSITDGNMPGTRPASRRMQQAGAVSPFGMLGMSGGFMDMFGMMNDMIGNMEHMTAGGNCQTFSSSTVISYSNTGDGAPKVYQETSEMRSAPGGIRETRRTVRDSDSGLEQMSIGHHIRDRAHILQRSRNHRTGDQEERQDYINLDESEAAAFDDEWRRETSRFRQQRPLEFRRLESSGAGGRRAEGPPRLAIQGPEDSPSRQSRRYDW”, the “soluble on expression in E. coli” value is reported as “soluble”. In the case of “MTLTASSSSRAVTNSPVVVALDYHNRDDALAFVDKIDPRDCRLKVGKEMFTLFGPQFVRELQQRGFDIFLDLKFHDIPNTAAHAVAAAADLGVWMVNVHASGGARMMTAAREALVPFGKDAPLLIAVTVLTSMEASDLVDLGMTLSPADYAERLAALTQKCGLDGVVCSAQEAVRFKQVFGQEFKLVTPGIRPQGSEAGDQRRIMTPEQALSAGVDYMVIGRPVTQSVDPAQTLKAINASLQRSA”, the “soluble on expression in E. coli” value is reported as “soluble”. With “APGVSTILDNRNNPIAWVYKQRRFEIPSEAIPQSMKDAIVSIEDRRFYEHKGVDIQGNLRAIVTNIFAGGVAQGASTIDQQYVKNFLLLVKSDNPEEQAAATETSIPRKLREMRMASTIDSTLSKDDILTRYLNLVHLGNGAFGVEAAARTYFGKGAPELSLAQSAMFAGIVQSSSY” the “soluble on expression in E. coli” value was “not soluble”. In the case of “MRPDAVMIFAAGFGTRMGALTATRPKPMIEVAGRPLIDHALALAEAAGISRIVANTHYLPESLTAHLAGRALVSHEEEILETGGGLCRALPLLGEGPVYTLNSDAVWTGENPLDELAAGWREGMEALLLLAPSGCAPGDFTMDAAGRLARARGAPGYTYLGAQILRTDRLAGVAEAKFSLNLVWDAMIAAGTAHGLIHRGGWCDVGRPEGIAAAEAMLANVLEHHHHHH”, the “soluble on expression in E. coli” value is reported as “not soluble”. For “PNRSISPSALQDLLRTLKSPSSPQQQQQVLNILKSNPQLMAAFIKQRTAKYVANQPGMQ”, the “soluble on expression in E. coli” value was “soluble”. For “PDLSTWNLTIPQGRPAITISTSQLQRDYRSDYFQRTADGIRFWVPVNGSHTRNSEFPRSELRETLSSGRPYNWRYARADNWLEATLRIEAVPSTRRMIIGQIHSDGSNSGQAAPLVKLLYQLRLDQGRVQALVRERPDDGGTRAYTLMDGIPLGQPFSYRIGVSRSGLLSVSVNGSALEQQLDPQWAYQGLYFKAGLYLQDNRGPSSEGGRATFSELRVSHQ”, the “soluble on expression in E. coli” value was “soluble”. For “MGSDKIHHHHHHMTISNQELTLTPLRGKSGKAYIGTYPNGERVFVKYNTTPILPALAKEQIAPQLLWARRTSNGDMMSAQEWLDGRTLTKEDMGSKQIIHILLRLHKSRPLVNQLLQLGYKIENPYDLLMDWEKQTPIQIRENTYLQSIVTELKRSLPEFRTEVATIVHGDIKHSNWVITTSGLIYLVDWDSVRLTDRMYDVAYILSHYIPQKHWKDWLSYYGYKDNEKVWSKIIWYGQFSYLSQIIKCFDKRDMEHVNQEIYELRKFRELIKKHNAS”, the “soluble on expression in E. coli” value was “not soluble”. With “SRTVIPGAVKYTLVYDNGSSQAVIATAPEITPTELEATLRQAASHLYSYGRLGSRGNNQLTIRARTIIHAEPGVSVPVYLGKVQRTLTTREDPEMAVEVYLDKFAQLSKPTA” the “soluble on expression in E. coli” value was “not soluble”. For “MGSDKIHHHHHHMMDRQFQHAMLPQPTHDELARQNFVQSLKTHIFRNISPGNKVVYEKLAKPKFEQEHQRPPQNRHEIREVMQHESYYRWTSALKRIHQEILWDAVNTSVGRQLPELIERAKDRGGELGTLTLDPNFQIPNYQKAVDIHCMPGGYHSEFTGGDVAAGATYDRGAYLYGLGWLGPLNNDMGLSIVQNYLLPEYPDFRPRKILDMGCSVGNSTLPYVDAYPDAEVHAIDVGAPMLRYGHARAEALGKRVHFWQQNAEHTNFPDESFDLVVSHILLHEIPPSAVRKVMQESYRLLAPGGIMLHLEAPLYRHLDVYTQFIFDWETANNNEPFWSAVRDLDLVTLATEAGFAPDKTFEKFVPNGAWKAKVTNGLFQNGNSGSLNTWFVVAATK”, the “soluble on expression in E. coli” value was “not soluble”. With “MSVFTPLARPELETFLAPYGLGRLLDYQGIAAGSENTNYFISLEQGEFVLTLVERGPVQEMPFFIELLDVLHDANLPVPYALRTTDGQALRELAGKPALLQPRLPGKHISEPNTQHCVQIGELLANLHLATREQVLERKTDRGLDWMLSEGRNFLSHLGETQRALLEKSLQEIEDLKPQIMALPRANLHADLFRDNVLFEGTHLTGLIDFYNACSGPMLYDLAIALNDWCSRENGQLDAVRARALLGAYAGLRPFTAAESKLWATMLRIACVRFWLSRLIAAETFAGQDVLIHDPVEFEQRLAERQTPHIALPFAL” the “soluble on expression in E. coli” value was “soluble”. For “MGSDKIHHHHHHMYETFMKRAIELAKKGLGRVNPNPPVGAVVVKDGRIIAEGFHPYFGGPHAERMAIESARKKGEDLRGATLIVTLEPCDHHGKTPPCTDLIIESGIKTVVIGTRDPNPVSGNGVEKFRNHGIEVIEGVLEEEVKKLCEFFITYVTKKRPFVALKYASTLDGKIADHRGDSKWITDKLRFKVHEMRNIYSAVLVGAGTVLKDNPQLTCRLKEGRNPVRVILDRKGVLSGKVFRVFEENARVIVFTESEEAEYPPHVEKALSDCSVESILRNLYERDIDSVLVEGGSKVFSEFLDHADVVFGFYSTKIFGKGLDVFSGYLSDVSVPPKFKVVNVEFSDSEFLVEMRPCSRE”, the “soluble on expression in E. coli” value was “soluble”. In the case of “SKLLENSSFEAINSQLTVETGDAHIIGRIESYSCKMAGDDKHMFKQFCQEGQPHVLEALSPPQTSGLSPSRLSKSQGGEEEGPLSDKCSRKTLFYLIATLNESFRPDYDFSTARSHEFSREPSLSWVVNAVNCSLFSAVREDFKDLKPQLWNAVDEEICLAECDIYSYNPDLDSDPFGEDGSLWSFNYFFYNKRLKRIVFFSCRSISGSTYTPSEAGNELDMELGEEEVEEESRSRGSGAEETSTMEEDRVPVICI”, the “soluble on expression in E. coli” value is reported as “soluble”. For “MHHHHHHSSGRENLYFQGPPARVRVAVRLRPFVDGTAGASDPPCVRGMDSCSLEIANWRNHQETLKYQFDAFYGERSTQQDIYAGSVQPILRHLLEGQNASVLAYGPTGAGKTHTMLGSPEQPGVIPRALMDLLQLTREEGAEGRPWALSVTMSYLEIYQEKVLDLLDPASGDLVIREDCRGNILIPGLSQKPISSFADFERHFLPASRNRTVGATRLNQRSSRSHAVLLVKVDQRERLAPFRQREGKLYLIDLAGSEDNRRTGNKGLRLKESGAINTSLFVLGKVVDALNQGLPRVPYRDSKLTRLLQDSLGGSAHSILIANIAPERRFYLDTVSALNFAARSKEVINRPFTNESLQPHALGPVKLSQKELLGPPEAK”, the “soluble on expression in E. coli” value was “soluble”. With “MDSSQVPNPVLVLVGSPRRDGNSALLAQAVAEGARQSGAAATLLFLDDYIAGFLTDEKEADARRPDDRYGELFFDHFLPARAVVLCTPVYWYGMSAQAKAFFDRSFTYYSASHPRHAEVLRRMTGKRLALAVSSEETYPGAALGIVHQLQEFTRYTHSQFVGMVHGAGNRRGEVAHDPRRPLQAAHRLGHDLLSLPYSDYRIDSPRDHQVWPGAPA” the “soluble on expression in E. coli” value was “not soluble”. With “KIGERMLGTDPVTGESVVAKMGRYGAMVQKGRTDKENGIKAQFASLQPGQSIESITLEEALELFLLPKKLGQYEDADVMVAVGRFGPYIKHAGKFVGLPKDTEPLSVSLDDAIKYIADKREKEEKSLIKGFAEDPEMEIRTGRFGVYIKYKGKNYKVPKTVEDPEKLTLEECLKYVEEGETKPAKGKKKAPAKKTSAKKTAKK” the “soluble on expression in E. coli” value was “not soluble”. In the case of “MSALFEPYTLKDVTLRNRIAIPPMSQYMAEDGMINDWHHVHLAGLARGGAGLLVVEATAVAPEGRITPGCAGIWSDAHAQAFVPVVQAIKAAGSVPGIQIAHAGRKASANRPWEGDDHIAADDTRGWETIAPSAIAFGAHLPKVPREMTLDDIARVKQDFVDAARRARDAGFEWIELHFAHGYLGQSFFSEHSNKRTDAYGGSFDNRSRFLLETLAAVREVWPENLPLTARFGVLEYDGRDEQTLEESIELARRFKAGGLDLLSVSVGFTIPDTNIPWGPAFMGPIAERVRREAKLPVTSAWGFGTPQLAEAALQANQLDLVSVGRAHLADPHWAYFAAKELGVEKASWTLPAPYAHWLERYR”, the “soluble on expression in E. coli” value is reported as “soluble”. With “MNSALYANYLNILKQELVPALGCTEPIAIAYAAAKAHQVLGEFPDSVNMSLSGNIIKNVKGVTVPNSGGLKGIDVAAILGIVGGNADKALEVLSEITEDDIARTRELVKQHVCSCSLVEGVDNLYITAKVIKGDHFASVTIEHQHTNITRIEKDGEVILDNPYQAECKTVIDKSKLTVKDILDFADQVRIEDVQPIIDRQIKLNSAIAQEGLDNNYGAQIGKTLMHVWGKSVTTRACARAAAGSDARMGGCSMPVVINSGSGNQGMTVSLPVIVFADEWEVSHEKLCRSLVVSNLIAIHQKYYIGSLSAYCGAVSAACGAGAGITYMYGGTYQQVSLTIINTLGNVGGIVCDGAKPSCAAKIASSVDAALMAFQLSIQNKSFLPGEGIIKDDIEETIKSMGYIGRVGMRSTDTEILNVMIDRADINQGC” the “soluble on expression in E. coli” value was “not soluble”. For “MGLFQIKPDIHYGANSLDILRTLEMEKVFLVTDENMVKLKVINKVTNILKSRGIEAKVYSDVKPDPTDEEIIKGMLELSAHDPDCIIALGGGSPIDACKSMIYFTNQIKRAMGQNKKPKFIAIPTTSGTGSEVTSYAVVTTKDKKIPLSDSEMLPDIAILNPEFIKTLSPSIIADTGMDVLTHAIEAYVSKSRNLFTNTFAIGAIKTVFADLVSNFENPQLEKERINLQIASCMAGVAFSNAGLGINHSIAHSLGARFHKPHGRLNAVIMSEVIQFNARNKNAAKYYREIVEALGFSPKEDVEGVEILAKAIKMRAAKMGIPNSLSELGIPKEQYFDEMEGIIDQIENDMCTGENPRRFSRIEMKQLLTDLY”, the “soluble on expression in E. coli” value was “not soluble”. For “MSLNETKQFIKRHLFSARWLVRNLQQRYSTIERIAEFLAVNQYEFFTQPDGQLKPLTMKTIADALELHESTIARTVSNKYINSPKGIFSLRSFFTTKYTSEEGEDLSAKTVKEAILEIISGENKLRPFSDEKISEFLKSKGITCARRTVAKYRQALDLGNTQQRKKFHQSEGHHHHHH”, the “soluble on expression in E. coli” value was “soluble”. In the case of “LSIPEDYQARLQPNRVEGSYPLVRMEFTGATVDAPLMSQISRKYNIDVSILSSDLDYAGGVKFGMMVAELFGNEQDDSAAIEYLREHNVKVEVLGYVL”, the “soluble on expression in E. coli” value is reported as “soluble”. With “GPLENWFTEFDIKPLASASIAQVHTARLKDTNQEVVLKVIRPDIRPVIDSDLKLMHRMARIVAGAMPEARRLKPVEVVREYEKTLLDELDLRREAANAIQLRRNFEGSEELYVPEVFPDFS” the “soluble on expression in E. coli” value was “not soluble”. In the case of “MAHHHHHHMYTHTHTHTHTHTCTHMYLSSTLHRVFSPLVASPPQKEVGSKSNARGGKRVWRKGLASWEPQAGTHAHAHAQTDAEGYLQRTRRKPRPPAHASSLSPPLLLGRSRMGYTRERTNRHFFVSRANAFFSRLPISRIQRALAMEAIKKGSMKPWKHTKEQIIGSPITCNFEYNPRPVRLIGTVMDAHTEETSIKGGLKVYARSEEANMMLWIPAGNPKLKYEVTAAKGSFEHYLDERSKWDEAWLTGRARMK”, the “soluble on expression in E. coli” value is reported as “soluble”.
